Measurements: patent US20090311253A1 (AbbVie / Abbott, published 2009)

Legend:
[1] = biological target: T1, Recombinant Human IL-13 (human, UniProt P35225 35-146, limits assumed); assay: Biacore SPR
[2] = biological target: T2, Recombinant Human IL-4 (human, UniProt P05112 25-153); assay: Biacore SPR
T2 sequence (looked up): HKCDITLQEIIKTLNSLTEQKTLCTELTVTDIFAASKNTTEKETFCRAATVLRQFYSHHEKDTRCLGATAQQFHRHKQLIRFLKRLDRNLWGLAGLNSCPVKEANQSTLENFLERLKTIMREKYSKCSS

[3] = biological target: T1, Recombinant Human IL-13; assay: direct bind ELISA
[4] = biological target: T2, Recombinant Human IL-4; assay: direct bind ELISA
[5] = biological target: T1, Recombinant Human IL-13; assay: cell-based or functional assay
[6] = biological target: T2, Recombinant Human IL-4; assay: cell-based or functional assay

T1 sequence (P35225 35-146 limits assumed): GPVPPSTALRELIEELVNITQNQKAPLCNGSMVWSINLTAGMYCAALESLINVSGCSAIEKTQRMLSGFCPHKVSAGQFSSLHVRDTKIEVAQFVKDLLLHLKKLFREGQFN

Kd [1]: 0.0497 nM | koff [1]: 8.69e-05 s⁻¹ | kon [1]: 1.75e+06 M⁻¹ s⁻¹ | Kd [2]: 4.86 nM | koff [2]: 0.000343 s⁻¹ | kon [2]: 70600 M⁻¹ s⁻¹ | EC50 [3]: 5.89 nM | EC50 [4]: 748 nM | IL-13 Neutralization Assay EC50 (A549 cells, hTARC) [5]: 0.09 nM | IL-4 Neutralization Assay EC50 (A549 cells, hTARC) [6]: 0.09 nM
B1: DVD267 (bispecific antibody, human IgG1, kappa)
heavy: not shown
light: DIQMTQSPSSLSASVGDRVTISCRASQDIRNYLNWYQQKPGKAPKLLIFYTSKLHSGVPSRFSGSGSGTDYTLTISSLQPEDIATYYCQQGLTPPLTFGGGTKVEIKRTVAAPDIVLTQSPSSLSASVGDRVTITCKASQSVDYDGDSYMNWYQQKPGKAPKLLIYAASNLESGIPSRFSGSGSGTDFTFTISSLQPEDIATYYCQQSNEDPPTFGQGTKVEIKRTVAAPSVFIFPPSDEQLKSGTASVVCLLNNFYPREAKVQWKVDNALQSGNSQESVTEQDSKDSTYSLSSTLTLSKADYEKHKVYACEVTHQGLSSPVTKSFNRGEC
notes: outer AB051, inner AB027; vectors V1, V2
